Patent US20200317756A1 (CERTEST BIOTEC S L, published 2020)

Tests used:
[1] = target: T1, DNA-Binding Protein from Starved Cells (Dps) of Campylobacter coli (Campylobacter coli); assay: sandwich immunochromatographic strip, immobilized CL30Camp and labeled CL30Camp, Dps at 0.75 ng/mL, read by eye after 10 min (+/- = weak positive response)
T1 construct: also called Dps of C. coli

[2] = target: T2, DNA-Binding Protein from Starved Cells (Dps) of Campylobacter jejuni (Campylobacter jejuni, UniProt Q0P891 1-149); assay: sandwich immunochromatographic strip, immobilized CL30Camp and labeled CL30Camp, Dps at 1.85 ng/mL, read by eye after 10 min
T2 construct: also called Dps of C. jejuni

B1: CL30Camp monoclonal antibody (antibody, V domains shown)
VH: QVQLKQSGPGLVQPSQSLSITCTVSGFSLTSSGVHWVRQSPGKGLEWLGVIWRGGSTDYNAAFMSRLSITKDNSKSQVFFKMNSLQPDDTAIYYCAKNYYYGTSPDYFDYWGQGTTLTVSS
VL: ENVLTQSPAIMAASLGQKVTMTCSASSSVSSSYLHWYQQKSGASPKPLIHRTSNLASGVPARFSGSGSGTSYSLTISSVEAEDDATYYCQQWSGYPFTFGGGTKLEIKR
notes: also called CL30Camp/CL30Camp (immobilized/labeled pair in the test device)
[1]
  binding result: binds
[2]
  binding result: binds
